Assay results taken from patent US20220040319A1 (Regeneron, published 2022).

Legend:
human MET on cells = human MET on cells (human, UniProt P08581 25-1390); test: cell-based or functional assay; on % Inhibition, HEK293/SRE-Luc Blocking Activity (HGF, 1 h mAb pre-bind): test concentration or dose not given here
[1] = target: T1, hMet.mmh (human MET extracellular domain with C-terminal myc-myc-hexahistidine tag) (human, UniProt P08581 309-914; P08581 27-307); test: SPR 37C, antibody captured
T1 construct: soluble monomeric MET; also called monomeric human MET
Description: (§1) The anti-Met antibodies tested in this example were bivalent monospecific binders of MET.
(§2) Kinetic association (kₐ) and dissociation (kd) rate constants were determined by fitting the real-time sensorgrams to a 1:1 binding model using Scrubber 2.0c curve fitting software. Binding dissociation equilibrium constant (KD) and dissociative half-life (t1/2) were calculated from the kinetic rate constants as: […]

[2] = target: T2, hMET.mFc (dimeric human MET) (human, UniProt P08581 27-307); test: SPR 37C, antibody captured
T2 construct: soluble dimeric MET protein
Description: as §1, §2

T2 sequence (P08581 other isoform, or with tags, fused parts or gaps limits assumed, chain 1 of 2): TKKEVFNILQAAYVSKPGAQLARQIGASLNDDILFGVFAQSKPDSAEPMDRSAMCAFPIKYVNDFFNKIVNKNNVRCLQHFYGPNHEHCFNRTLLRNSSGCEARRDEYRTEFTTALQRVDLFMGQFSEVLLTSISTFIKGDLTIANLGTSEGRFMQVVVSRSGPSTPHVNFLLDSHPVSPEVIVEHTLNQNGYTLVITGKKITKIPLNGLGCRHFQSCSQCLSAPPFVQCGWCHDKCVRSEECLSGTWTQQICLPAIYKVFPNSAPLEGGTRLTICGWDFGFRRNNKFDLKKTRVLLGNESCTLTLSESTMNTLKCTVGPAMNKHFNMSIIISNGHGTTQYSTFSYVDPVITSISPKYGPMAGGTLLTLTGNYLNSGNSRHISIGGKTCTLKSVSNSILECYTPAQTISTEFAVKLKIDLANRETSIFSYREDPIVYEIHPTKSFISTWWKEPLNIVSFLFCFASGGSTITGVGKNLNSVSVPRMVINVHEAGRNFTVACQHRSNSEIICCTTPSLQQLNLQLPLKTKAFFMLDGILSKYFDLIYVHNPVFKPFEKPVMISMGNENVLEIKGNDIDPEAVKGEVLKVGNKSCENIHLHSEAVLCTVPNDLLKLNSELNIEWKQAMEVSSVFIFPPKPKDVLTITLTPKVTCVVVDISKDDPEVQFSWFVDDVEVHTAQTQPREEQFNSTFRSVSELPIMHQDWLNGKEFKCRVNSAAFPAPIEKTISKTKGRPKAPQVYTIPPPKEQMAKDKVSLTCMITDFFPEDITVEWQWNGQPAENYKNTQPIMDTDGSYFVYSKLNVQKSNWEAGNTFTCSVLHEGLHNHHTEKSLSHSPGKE
T2 sequence (P08581 27-307 limits assumed, chain 2 of 2): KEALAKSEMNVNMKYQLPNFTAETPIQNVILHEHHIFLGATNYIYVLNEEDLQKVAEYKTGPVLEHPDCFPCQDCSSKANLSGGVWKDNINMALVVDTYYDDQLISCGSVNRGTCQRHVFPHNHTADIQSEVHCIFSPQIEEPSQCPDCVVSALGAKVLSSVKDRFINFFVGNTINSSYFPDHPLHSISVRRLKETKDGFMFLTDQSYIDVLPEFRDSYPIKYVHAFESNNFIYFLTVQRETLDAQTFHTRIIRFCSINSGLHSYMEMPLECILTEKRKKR
T1 sequence (P08581 other isoform, or with tags, fused parts or gaps limits assumed, chain 1 of 2): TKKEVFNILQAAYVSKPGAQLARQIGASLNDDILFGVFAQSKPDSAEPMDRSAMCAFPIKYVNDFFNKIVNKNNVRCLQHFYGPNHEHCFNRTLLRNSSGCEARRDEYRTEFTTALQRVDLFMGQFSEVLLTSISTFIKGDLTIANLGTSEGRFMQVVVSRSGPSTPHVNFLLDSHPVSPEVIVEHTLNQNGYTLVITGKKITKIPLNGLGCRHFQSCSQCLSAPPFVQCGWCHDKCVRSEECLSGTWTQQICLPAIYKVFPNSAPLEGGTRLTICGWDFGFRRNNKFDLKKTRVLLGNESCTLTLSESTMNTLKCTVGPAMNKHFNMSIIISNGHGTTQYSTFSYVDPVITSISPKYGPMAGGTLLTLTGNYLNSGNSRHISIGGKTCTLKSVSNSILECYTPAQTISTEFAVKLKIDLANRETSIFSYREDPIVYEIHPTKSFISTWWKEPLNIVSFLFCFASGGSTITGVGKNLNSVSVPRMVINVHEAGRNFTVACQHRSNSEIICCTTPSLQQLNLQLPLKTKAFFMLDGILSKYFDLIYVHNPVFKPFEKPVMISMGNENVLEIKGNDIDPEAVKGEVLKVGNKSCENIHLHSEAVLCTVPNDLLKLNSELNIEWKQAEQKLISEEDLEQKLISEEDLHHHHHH
T1 sequence (P08581 27-307 limits assumed, chain 2 of 2): as the sequence (P08581 27-307 limits assumed, chain 2 of 2) above
Sequence of human MET on cells (P08581 25-1390 limits assumed, form in doubt): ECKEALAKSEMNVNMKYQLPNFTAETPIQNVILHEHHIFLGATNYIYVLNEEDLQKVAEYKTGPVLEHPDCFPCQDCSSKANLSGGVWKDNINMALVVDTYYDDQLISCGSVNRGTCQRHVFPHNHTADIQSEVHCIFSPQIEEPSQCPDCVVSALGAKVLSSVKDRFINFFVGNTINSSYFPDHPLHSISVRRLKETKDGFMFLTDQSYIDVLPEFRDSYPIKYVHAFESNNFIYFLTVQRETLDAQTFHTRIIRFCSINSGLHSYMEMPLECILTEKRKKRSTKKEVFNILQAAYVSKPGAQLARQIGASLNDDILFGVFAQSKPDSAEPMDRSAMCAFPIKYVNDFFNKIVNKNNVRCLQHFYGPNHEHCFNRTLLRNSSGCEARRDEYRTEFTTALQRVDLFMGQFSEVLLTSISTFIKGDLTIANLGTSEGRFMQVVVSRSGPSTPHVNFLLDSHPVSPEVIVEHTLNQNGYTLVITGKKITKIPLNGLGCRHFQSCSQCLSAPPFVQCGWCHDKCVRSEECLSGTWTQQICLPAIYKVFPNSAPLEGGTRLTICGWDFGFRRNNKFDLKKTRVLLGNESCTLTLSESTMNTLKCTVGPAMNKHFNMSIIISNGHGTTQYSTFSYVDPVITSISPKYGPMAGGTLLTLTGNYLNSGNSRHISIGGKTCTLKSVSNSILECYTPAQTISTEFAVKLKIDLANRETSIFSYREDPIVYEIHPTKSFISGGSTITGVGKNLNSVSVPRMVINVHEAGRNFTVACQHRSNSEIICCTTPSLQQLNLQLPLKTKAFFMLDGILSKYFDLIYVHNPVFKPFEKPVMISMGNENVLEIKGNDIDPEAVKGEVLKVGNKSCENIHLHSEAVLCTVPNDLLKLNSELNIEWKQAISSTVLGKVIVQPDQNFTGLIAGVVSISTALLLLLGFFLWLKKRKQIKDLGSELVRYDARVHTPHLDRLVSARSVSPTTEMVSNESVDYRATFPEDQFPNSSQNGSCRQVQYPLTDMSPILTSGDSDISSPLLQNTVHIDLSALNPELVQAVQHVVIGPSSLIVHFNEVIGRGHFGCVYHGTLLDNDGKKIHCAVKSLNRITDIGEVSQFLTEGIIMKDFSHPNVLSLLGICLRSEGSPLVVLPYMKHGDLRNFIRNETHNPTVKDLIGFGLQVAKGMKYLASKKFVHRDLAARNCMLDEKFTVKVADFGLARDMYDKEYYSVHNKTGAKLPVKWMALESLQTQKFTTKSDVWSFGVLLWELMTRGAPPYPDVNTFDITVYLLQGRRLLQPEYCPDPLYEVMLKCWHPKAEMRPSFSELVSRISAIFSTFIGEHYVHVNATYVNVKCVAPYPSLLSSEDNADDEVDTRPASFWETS

B1: H4H16445D (bispecific antibody, human IgG4, V domains shown)
VH 1: QVQLVESGGGVVQPGGSLRLSCAASGFTFSGYGMHWVRQAPGKGLEWMAVIWYDGSNDYYPDSVKGRFTISRDNSKNTLYLQMNSLRVEDTAVYYCARDAWDLLRSFDYWGQGTLVTVSS
VH 2: EVQLVESGGGLVQPGGSLRLSCAASGFIVTTNYMTWLRQAPGKGLEWVSLIYSSGHTYYADSVKGRFTISRHNSKNTLYLQMDSLRAEDTAVYYCASAFAADVFDIWGQGTMVTVSS
VL: not shown
% Inhibition, HEK293/SRE-Luc Blocking Activity (HGF, 1 h mAb pre-bind) (human MET on cells): 81% | EC50, Ligand (HGF)-Independent HEK293/SRE-Luc Activation (human MET on cells): 1 nM | Fold Response, Ligand (HGF)-Independent HEK293/SRE-Luc Activation (human MET on cells): 4.3 fold | IC50, HEK293/SRE-Luc Blocking Activity (HGF, 1 h mAb pre-bind) (human MET on cells): 0.52 nM

B2: H4H16446D (bispecific antibody, human IgG4, V domains shown)
VH 1: QVQLVESGGGVVQPGRSLRLSCAVSGFTFSSYGMHWVRQAPGKGLEWVANIWYDGTNDYYPYSVKGRFTISRDNSQNTLYLQMNSLRAEDTAVYYCAREDFINYRSFDYWGQGTLVTVSS
VH 2: EVQLVESGGGLVQPGGSLRLSCAASGFIVTTNYMTWLRQAPGKGLEWVSLIYSSGHTYYADSVKGRFTISRHNSKNTLYLQMDSLRAEDTAVYYCASAFAADVFDIWGQGTMVTVSS
VL: not shown
% Inhibition, HEK293/SRE-Luc Blocking Activity (HGF, 1 h mAb pre-bind) (human MET on cells): 83% | EC50, Ligand (HGF)-Independent HEK293/SRE-Luc Activation (human MET on cells): 1.4 nM | Fold Response, Ligand (HGF)-Independent HEK293/SRE-Luc Activation (human MET on cells): 4 fold | IC50, HEK293/SRE-Luc Blocking Activity (HGF, 1 h mAb pre-bind) (human MET on cells): 1 nM

B3: H4H16447D (bispecific antibody, human IgG4, V domains shown)
VH 1: QVQLVESGGGVVQPGRSLRLSCAASGFTFSSYAMHWVRQAPGRGLEWVAVIWHDGDVEYYVDSVKDRFTISRDNSKSTLYLQMNSLRAEDTALYYCAREAWDLLRPFDYWGQGTLVTVSS
VH 2: EVQLVESGGGLVQPGGSLRLSCAASGFIVTTNYMTWLRQAPGKGLEWVSLIYSSGHTYYADSVKGRFTISRHNSKNTLYLQMDSLRAEDTAVYYCASAFAADVFDIWGQGTMVTVSS
VL: not shown
% Inhibition, HEK293/SRE-Luc Blocking Activity (HGF, 1 h mAb pre-bind) (human MET on cells): 76% | EC50, Ligand (HGF)-Independent HEK293/SRE-Luc Activation (human MET on cells): 1.4 nM

B4: H4H16448D (bispecific antibody, human IgG4, V domains shown)
VH 1: QVQLVESGGGVVQPGRSLRLSCVASGFSFSNFGMHWVRQAPGKGLEWVAIIWYDGSNKYYSDSVKGRFTISRDNSKNTLYLQMNSLRVDDTAVYYCARFDRWKFDAFDIWGQGTMVTVSS
VH 2: EVQLVESGGGLVQPGGSLRLSCAASGFIVTTNYMTWLRQAPGKGLEWVSLIYSSGHTYYADSVKGRFTISRHNSKNTLYLQMDSLRAEDTAVYYCASAFAADVFDIWGQGTMVTVSS
VL: not shown
% Inhibition, HEK293/SRE-Luc Blocking Activity (HGF, 1 h mAb pre-bind) (human MET on cells): 87% | EC50, Ligand (HGF)-Independent HEK293/SRE-Luc Activation (human MET on cells): 0.91 nM | Fold Response, Ligand (HGF)-Independent HEK293/SRE-Luc Activation (human MET on cells): 4.3 fold | IC50, HEK293/SRE-Luc Blocking Activity (HGF, 1 h mAb pre-bind) (human MET on cells): 0.62 nM

B5: H4H16449D (bispecific antibody, human IgG4, V domains shown)
VH 1: QVQLVESGGGVVQPGRSLRLSCAASGFTFSSFAMHWVRQAPGKGLEWVAVIWYDGSNDYYAASVKGRFTISRDNSKNTLYLEMNRLRAEDTAVYHCARDNWNYWGGMDVWGQGTTVTVSS
VH 2: EVQLVESGGGLVQPGGSLRLSCAASGFIVTTNYMTWLRQAPGKGLEWVSLIYSSGHTYYADSVKGRFTISRHNSKNTLYLQMDSLRAEDTAVYYCASAFAADVFDIWGQGTMVTVSS
VL: not shown
% Inhibition, HEK293/SRE-Luc Blocking Activity (HGF, 1 h mAb pre-bind) (human MET on cells): 85% | EC50, Ligand (HGF)-Independent HEK293/SRE-Luc Activation (human MET on cells): 0.42 nM | Fold Response, Ligand (HGF)-Independent HEK293/SRE-Luc Activation (human MET on cells): 4.2 fold | IC50, HEK293/SRE-Luc Blocking Activity (HGF, 1 h mAb pre-bind) (human MET on cells): 0.32 nM

B6: H4H13290P2 (antibody, human IgG4, V domains shown)
VH: QVQLQESGPGLVKPSETLSLTCTVSGDSISSYYWTWIRQPPGKGLEWIGYIFYRGGTTYNPSLKSRVTISVDTSKNQFSLKLRSVTAADTAVYYCARGDDLLVVTSVYWYIDLWGRGTLVTVSS
VL: not shown
notes: human IgG4 Fc (H4H), bivalent monospecific
Kd [1]: 3.17 nM | T½ [1]: 14.4 min | koff [1]: 0.000803 s⁻¹ | kon [1]: 253000 M⁻¹ s⁻¹ | Kd [2]: 0.513 nM | T½ [2]: 36.6 min | koff [2]: 0.000315 s⁻¹ | kon [2]: 615000 M⁻¹ s⁻¹

B7: H4H13309P2 (antibody, human IgG4, V domains shown)
VH: QVQLVQSGTEVKEPGASVKVSCKASGYSFTTYGISWLRQAPGQGLEWMGWISTYNGDTISAQMLQDRVTLTADTSTRTAYMELRSLRSDDTAVYYCARGHEYDSLVYSYWGQGTLVTVSS
VL: not shown
notes: as for B6
Kd [1]: 6.38 nM | T½ [1]: 19.7 min | koff [1]: 0.000587 s⁻¹ | kon [1]: 92000 M⁻¹ s⁻¹ | Kd [2]: 0.657 nM | T½ [2]: 43.3 min | koff [2]: 0.000267 s⁻¹ | kon [2]: 406000 M⁻¹ s⁻¹

B8: H4H13311P2 (antibody, human IgG4, V domains shown)
VH: QVQLVESGGGVVQPGRSLRLSCAASGFTFSSYAMHWVRQAPGRGLEWVAVIWHDGDVEYYVDSVKDRFTISRDNSKSTLYLQMNSLRAEDTALYYCAREAWDLLRPFDYWGQGTLVTVSS
VL: not shown
notes: as for B6
Kd [1]: 116 nM | T½ [1]: 2.2 min | koff [1]: 0.00519 s⁻¹ | kon [1]: 44800 M⁻¹ s⁻¹ | Kd [2]: 1.55 nM | T½ [2]: 24.7 min | koff [2]: 0.000468 s⁻¹ | kon [2]: 302000 M⁻¹ s⁻¹

B9: H4H13291P2 (antibody, human IgG4, V domains shown)
VH: QVQLVESGGGVVQPGGSLRLSCAASGFTFSGYGMHWVRQAPGKGLEWMAVIWYDGSNDYYPDSVKGRFTISRDNSKNTLYLQMNSLRVEDTAVYYCARDAWDLLRSFDYWGQGTLVTVSS
VL: not shown
notes: as for B6
Kd [1]: 93.4 nM | T½ [1]: 4.8 min | koff [1]: 0.00238 s⁻¹ | kon [1]: 25500 M⁻¹ s⁻¹ | Kd [2]: 1.02 nM | T½ [2]: 34 min | koff [2]: 0.000339 s⁻¹ | kon [2]: 333000 M⁻¹ s⁻¹

B10: H4H13313P2 (antibody, human IgG4, V domains shown)
VH: QVQLVESGGGVVQPGRSLRLSCSASGFSFSHFGMHWVRQVPGGGLEWVTSIWFDGSNRYYADSLKGRFTISRDNSKNTLYLEMNSLRAEDTAVYYCVREGILGTTNPYDVFDVWGQGTMVTVSS
VL: not shown
notes: as for B6
Kd [1]: 64.9 nM | T½ [1]: 2 min | koff [1]: 0.0057 s⁻¹ | kon [1]: 87800 M⁻¹ s⁻¹ | Kd [2]: 1.19 nM | T½ [2]: 12.9 min | koff [2]: 0.000893 s⁻¹ | kon [2]: 750000 M⁻¹ s⁻¹

B11: H4H13316P2 (antibody, human IgG4, V domains shown)
VH: EVQLVESGGGLVQPGGSLRLSCAASGFTFRSYVMSWFRQAPGKGLEWVSGMSGSGGSTSYADSVKGRFTISRDNSKNTLYLLMNSLRTEDTAVYYCAKENGANWNYGYYGMDVWGQGTTVTVSS
VL: not shown
notes: as for B6
Kd [1]: 19.3 nM | T½ [1]: 7.6 min | koff [1]: 0.00151 s⁻¹ | kon [1]: 78200 M⁻¹ s⁻¹ | Kd [2]: 0.367 nM | T½ [2]: 107 min | koff [2]: 0.000108 s⁻¹ | kon [2]: 293000 M⁻¹ s⁻¹

B12: H4H13318P2 (antibody, human IgG4, V domains shown)
VH: QVQLVESGGGVVQPGRSLRLSCVASGFSFSNFGMHWVRQAPGKGLEWVAIIWYDGSNKYYSDSVKGRFTISRDNSKNTLYLQMNSLRVDDTAVYYCARFDRWKFDAFDIWGQGTMVTVSS
VL: not shown
notes: as for B6
Kd [1]: 88.3 nM | T½ [1]: 4 min | koff [1]: 0.00292 s⁻¹ | kon [1]: 33000 M⁻¹ s⁻¹ | Kd [2]: 0.467 nM | T½ [2]: 70.2 min | koff [2]: 0.000165 s⁻¹ | kon [2]: 352000 M⁻¹ s⁻¹

B13: H4H13319P2 (antibody, human IgG4, V domains shown)
VH: QVQLVESGGGVVQPGRSLRLSCAASGFTFSSFAMHWVRQAPGKGLEWVAVIWYDGSNDYYAASVKGRFTISRDNSKNTLYLEMNRLRAEDTAVYHCARDNWNYWGGMDVWGQGTTVTVSS
VL: not shown
notes: as for B6
Kd [1]: 76.5 nM | T½ [1]: 4.9 min | koff [1]: 0.00238 s⁻¹ | kon [1]: 31100 M⁻¹ s⁻¹ | Kd [2]: 1.42 nM | T½ [2]: 21.3 min | koff [2]: 0.000542 s⁻¹ | kon [2]: 382000 M⁻¹ s⁻¹

B14: H4H13325P2 (antibody, human IgG4, V domains shown)
VH: EVQLLESGGGWVQPGGSLRLSCAASGFAFSNYAMNWVRQTPGKGLEWVSVISSSGGNTYYADSVKGRFAISRDNSRDTLHLQMNRLRVEDTAVYYCAKEIRPYYDLSYYYGMDVWGQGTTVTVSS
VL: not shown
notes: as for B6
Kd [1]: 24.8 nM | T½ [1]: 4.9 min | koff [1]: 0.00236 s⁻¹ | kon [1]: 95300 M⁻¹ s⁻¹ | Kd [2]: 0.605 nM | T½ [2]: 62.4 min | koff [2]: 0.000185 s⁻¹ | kon [2]: 306000 M⁻¹ s⁻¹
